{"source": "patent US20250064976A1", "about": "(BROAD INSTITUTE, published 2025)", "proteins": {"B1": {"name": "PNMA2(340)-CCMV(30), engineered PNMA2 (other)", "chain": "MALALLEDWCRIMSVDEQKSLMVTGIPADFEEAEIQEVLQETLKSLGRYRLLGKIFRKQENANAVLLELLEDTDVSAIPSEVQGKGGVWKVIFKTPNQDTEFLERLNLFLEKEGQTVSGMFRALGQEGVSPATVPCISPELLAHLLGQAMAHAPQPLLPMRYRKLRVFSGSAVPAPEEESFEVWLEQATEIVKEWPVTEAEKKRWLAESLRGPALDLMHIVQADNPSISVEECLEAFKQVFGSLESRRTAQVRYLKTYQEEGEKVSAYVLRLETLLRRAVEKRAIPRRIADQVRLEQVMAGATLNQMLWCRLRELKDQGPPPSFLELMKVIREEEEEEASMSTVGTGKLTRAQRRAAARKNKRNTRVVQP", "notes": "Written as the monomer; The disordered C-terminal region of PNMA2 is replaced by the N-terminal 30 residues of CCMV; It was purified from E. coli and forms capsids like wild-type PNMA2; also called ePNMA2; PNMA2(1-340)-CCMV"}, "B2": {"name": "human paraneoplastic antigen Ma2 (PNMA2), recombinant, purified from E. coli (other)", "chain": "ALALLEDWCRIMSVDEQKSLMVTGIPADFEEAEIQEVLQETLKSLGRYRLLGKIFRKQENANAVLLELLEDTDVSAIPSEVQGKGGVWKVIFKTPNQDTEFLERLNLFLEKEGQTVSGMFRALGQEGVSPATVPCISPELLAHLLGQAMAHAPQPLLPMRYRKLRVFSGSAVPAPEEESFEVWLEQATEIVKEWPVTEAEKKRWLAESLRGPALDLMHIVQADNPSISVEECLEAFKQVFGSLESRRTAQVRYLKTYQEEGEKVSAYVLRLETLLRRAVEKRAIPRRIADQVRLEQVMAGATLNQMLWCRLRELKDQGPPPSFLELMKVIREEEEEEASFENESIEEPEERDGYGRWNHEGDD", "notes": "Written as the monomer; Only residues 158-340 were resolved by cryo-EM; also called PNMA2 monomer; wild-type PNMA2"}, "B3": {"name": "HA-tagged PNMA2 overexpressed in HEK293FT cells (other)", "chain": "B2 chain", "notes": "also called HA-PNMA2; PNMA2-HA; not shown: HA tag at the N-terminus"}}, "key": {"[1]": {"target": "the molecule itself", "assay": "TEM of protein purified from E. coli"}, "[2]": {"target": "the molecule itself", "assay": "capsid formation (homo-oligomer)"}, "[3]": {"target": "the molecule itself", "assay": "TEM of the HA-immunoprecipitated VLP fraction from HEK293FT cells"}}, "data": [{"protein": "B1", "values": [{"measurement": "binding result", "setting": "[1]", "result": "binds"}]}, {"protein": "B2", "values": [{"measurement": "binding result", "setting": "[2]", "result": "binds"}]}, {"protein": "B3", "values": [{"measurement": "binding result", "setting": "[3]", "result": "binds"}]}]}
